Results published in publication PMC9278655.

Assays:
Crimson = assay: SEC; HPLC (LC-20A), Superdex 200 10/300 GL; 200 uL of fluorescent protein loaded at 10 uM; 0.5 mL/min; 50 mM PBS pH 7
mKate2 = assay: as above

Substance | stoichiometry N (Crimson) | stoichiometry N (mKate2)
Crimson | 2 | 
mKate2 |  | 2
